Source: the supplement of paper PMC10567573

B1: FBXO3 (parent)
chain: DEEERRRRVFDVPIRRRRCSRLF
B2: MFF (parent)
chain: MAEISRIQYEMEYTEGISQRMRVP

Variants of: B1
Test: protein stability index of a GFP-peptide fusion (GPS, HEK-293T) (PSI 1-6); higher = more stable
Conditions: c terminus: native
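Further: lentivirally expressed fusions sorted by FACS into six bins by GFP to DsRed ratio, PSI derived from sequencing read proportions per bin multiplied by bin number.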

In order of rising protein stability index:
1. DEEERRRRVFDVPIRRRRCSRLS [F23S]  1.03
2. DEEERRRRVFDVPIRRRICSRLF [R18I]  1.34
3. DEEERRRRVFDVPIRRRRCSRLA [F23A]  1.35
4. DEEERRRRVFDVPIRRRFCSRLF [R18F]  1.57
5. DEEERRRRVFDVPIRRRACSRLF [R18A]  1.69
6. DEEERRRRVFDVPIRRRTCSRLF [R18T]  1.7
7. DEEERRRRVFDVPIRRRPCSRLF [R18P]  1.7
8. DEEERRRRVFDVPIRRRNCSRLF [R18N]  1.76
9. DEEERRRRVFDVPIRRRQCSRLF [R18Q]  1.78
10. DEEERRRRVFDVPIRRRRESRLF [C19E]  1.83
11. DEEERRRRVFDVPIRRRVCSRLF [R18V]  1.83
12. DEEERRRRVFDVPIRRRRCSRLI [F23I]  1.85
13. DEEERRRRVFDVPIRRRRGSRLF [C19G]  1.93
14. DEEERRRRVFDVPIRRRYCSRLF [R18Y]  1.95
15. DEEERRRRVFDVPIRRRHCSRLF [R18H]  2.18
16. DEEERRRRVFDVPIRRRSCSRLF [R18S]  2.26
17. DEEERRRRVFDVPIRRRCCSRLF [R18C]  2.29
18. DEEERRRRVFDVPIRRRMCSRLF [R18M]  2.31
19. DEEERRRRVFDVPIRRRWCSRLF [R18W]  2.31
20. DEEERRRRVFDVPIRRRRCSGLF [R21G]  2.36
21. DEEERRRRVFDVPIRRRECSRLF [R18E]  2.38
22. DEEERRRRVFDVPIRRRRCSRLT [F23T]  2.4
23. DEEERRRRVFDVPIRRRRCSRLN [F23N]  2.48
24. DEEERRRRVFDVPIRRRRCSWLF [R21W]  2.53
25. DEEERRRRVFDVPIRRRRPSRLF [C19P]  2.56
26. DEEERRRRVFDVPIRRRRCSLLF [R21L]  2.6
27. DEEERRRRVFDVPIRRRRCSRLC [F23C]  2.65
28. DEEERRRRVFDVPIRRRLCSRLF [R18L]  2.68
29. DEEERRRRVFDVPIRRRRCSRLD [F23D]  2.71
30. DEEERRRRVFDVPIRRRRCSPLF [R21P]  2.72
31. DEEERRRRVFDVPIRRRRCSRLH [F23H]  2.77
32. DEEERRRRVFDVPIRRRKCSRLF [R18K]  2.83
33. DEEERRRRVFDVPIRRRRCSRLG [F23G]  2.86
34. DEEERRRRVFDVPIRRRRCSMLF [R21M]  2.87
35. DEEERRRRVFDVPIRRRRCSILF [R21I]  2.93
36. DEEERRRRVFDVPIRRRRCSRLQ [F23Q]  2.98
37. DEEERRRRVFDVPIRRRRCSVLF [R21V]  2.98
38. DEEERRRRVFDVPIRRRRCSFLF [R21F]  3.04
39. DEEERRRRVFDVPIRRRRCSYLF [R21Y]  3.08
40. DEEERRRRVFDVPIRRRRVSRLF [C19V]  3.22
41. DEEERRRRVFDVPIRRRRMSRLF [C19M]  3.23
42. DEEERRRRVFDVPIRRRRCSRLY [F23Y]  3.25
43. DEEERRRRVFDVPIRRRRCSKLF [R21K]  3.27
44. DEEERRRRVFDVPIRRRRCSRLV [F23V]  3.28
45. DEEERRRRVFDVPIRRRRYSRLF [C19Y]  3.36
46. DEEERRRRVFDVPIRRRRDSRLF [C19D]  3.44
47. DEEERRRRVFDVPIRRRRCSELF [R21E]  3.46
48. DEEERRRRVFDVPIRRRRISRLF [C19I]  3.49
49. DEEERRRRVFDVPIRRRRLSRLF [C19L]  3.54
50. DEEERRRRVFDVPIRRRRCSRLW [F23W]  3.56
51. DEEERRRRVFDVPIRRRRCSHLF [R21H]  3.59
52. DEEERRRRVFDVPIRRRRASRLF [C19A]  3.62
53. DEEERRRRVFDVPIRRRRCSQLF [R21Q]  3.62
54. DEEERRRRVFDVPIRRRRTSRLF [C19T]  3.63
55. DEEERRRRVFDVPIRRRRWSRLF [C19W]  3.64
56. DEEERRRRVFDVPIRRRGCSRLF [R18G]  3.74
57. DEEERRRRVFDVPIRRRRFSRLF [C19F]  3.76
58. DEEERRRRVFDVPIRRRRCSTLF [R21T]  3.85
59. DEEERRRRVFDVPIRRRRCSRLR [F23R]  3.91
60. DEEERRRRVFDVPIRRRRCSDLF [R21D]  3.91
61. DEEERRRRVFDVPIRRRRCSNLF [R21N]  3.99
62. DEEERRRRVFDVPIRRRRCSRLL [F23L]  4.08
63. DEEERRRRVFDVPIRRRRCSRLK [F23K]  4.1
64. DEEERRRRVFDVPIRRRRSSRLF [C19S]  4.15
65. DEEERRRRVFDVPIRRRRCSSLF [R21S]  4.35
66. DEEERRRRVFDVPIRRRRQSRLF [C19Q]  4.39
67. DEEERRRRVFDVPIRRRRHSRLF [C19H]  4.39
68. DEEERRRRVFDVPIRRRRCSALF [R21A]  4.48
69. DEEERRRRVFDVPIRRRRNSRLF [C19N]  4.56
70. DEEERRRRVFDVPIRRRRRSRLF [C19R]  4.59
71. DEEERRRRVFDVPIRRRRKSRLF [C19K]  4.77
72. DEEERRRRVFDVPIRRRRCSCLF [R21C]  4.79

Variants of: B2
Test: as above
Conditions: c terminus: a fixed tail appended

In order of rising protein stability index:
1. MWEISRIQYEMEYTEGISQRMRVP [A2W]  1.51
2. CAEISRIQYEMEYTEGISQRMRVP [M1C]  1.85
3. MAEISRIQYEMEYTEGIWQRMRVP [S18W]  1.89
4. FAEISRIQYEMEYTEGISQRMRVP [M1F]  1.97
5. MAEISRIQYEMEYTEGISQRMRVH [P24H]  2.02
6. MAEISRIQYEMEYTEHISQRMRVP [G16H]  2.02
7. MAEISRIQYYMEYTEGISQRMRVP [E10Y]  2.09
8. MAEISRIQYEMEYTEGISQMMRVP [R20M]  2.13
9. MAEIGRIQYEMEYTEGISQRMRVP [S5G]  2.27
10. MAEISRIQYEMRYTEGISQRMRVP [E12R]  2.31
11. MAEISRIQYEMEYTEGISQRMRVS [P24S]  2.33
12. MAEISRIQYEMEYTEGISQCMRVP [R20C]  2.41
13. LAEISRIQYEMEYTEGISQRMRVP [M1L]  2.55
14. MAEISRIQYEYEYTEGISQRMRVP [M11Y]  2.67
15. MAEISRIQYEMEYTEGISQRMRRP [V23R]  2.73
16. MAEISRIQYEMEYTEGISQRMREP [V23E]  2.73
17. MAEISRIQYSMEYTEGISQRMRVP [E10S]  2.74
18. MAEISRIQYEMEYTEGISGRMRVP [Q19G]  2.81
19. MAEISRMQYEMEYTEGISQRMRVP [I7M]  2.93
20. MAEISRIQYEMEYTEGISQRMRVK [P24K]  2.98
21. MAEISRIQYEGEYTEGISQRMRVP [M11G]  3.28
22. MAEISRIQYEMEYTEGISQRSRVP [M21S]  3.31
23. MAEISRIQYEMEETEGISQRMRVP [Y13E]  3.32
24. MAEISRIQYEMEYTEGESQRMRVP [I17E]  3.36
25. MAEISRIQYEMEYTEGGSQRMRVP [I17G]  3.55
